According to the nanobody polyreactivity screen of Harvey et al. (2022):

Assay: yeast display, Sf9 membrane polyspecificity reagent, FACS + sequencing; frameworks hold sequencing errors
Method in brief: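 Genes from sorted yeast were amplified by colony PCR, read by MiSeq 2 × 250 sequencing and filtered on CDR length. These cells carried a synthetic nanobody library in Saccharomyces cerevisiae BJ5465 and were sorted by FACS into low and high (top ~1%) gates on anti-HA and streptavidin fluorescence. Polyreactivity is labelled according to the gate of origin.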

Sequence | polyreactivity (PSR sort gate)
QVQLVEAGGGLVQAGGSLRLSCASSGRIFNLYAMALYRQAPGKERELVAAINWSGDRTSYADSVKGRFTISRDNAKNTVYLQMNSLKPEDTAVYYCAAEYGLGDDTAYGYWGQGTQVTVSS | low polyreactivity
HVQHVESGGGLVQAGGSLRLSCAASGLIFGVNAMGWYRQAPGKERELVATITSGTSTYYADSVKGRFTISRDNAKNTVYLQMNSLKPEDNAVSYCAVRNGDSWYYYWGQGTQVTVSS | low polyreactivity
QVQLVESCGDLVQAGASLRLSCAASGRIFVYYAMGWYRQAPGKERELVALITSLGSTNYSDSVKGRFTISRDNGKNCVYLQMNSLKPEDTAVYYCAAEWEYYGFDYWGQGTQVTVSS | low polyreactivity
QVQLVESGGGLVQAGGSLRLSCAASGSIFSYYVMGWYRQAPGKERELVAAITRSGGSTYYADSVKGRFTISRDNAKNTVYLQMNRLKPEDTAVYYCAATYSHRRGDYWGQGTQVTVSS | high polyreactivity
QVQLVESGGGLVQAGGSLRLSCAASGSTFGPYAMGWYRQAPGKERELVAAISRRGTSTYYADSVKGRFTISRDNAKNTVYLQMISLKPEDTAVYYCAADRLLYGGGREYWGQGTQVTVSS | high polyreactivity
QVQLQESGGGLVQAGGSLRLSCAASGTIFRFRYMGWHRQAPGTERELVAGINGGTTTYYADSVIGRFTISRDNAKNTVYLQMNSLKPDDTAVYNCAAGASRLTYYDYWGQGTQVTVSS | low polyreactivity
QVQLVESGGGLVQAGGSLRLSCAASGYTSRSNAMGWYRQAPGKERELVAAIRGGGNTKYADSVKWRFTISRDNANNTVYLQMNSLKPEDTAVYYCAVVTGSFRTRYTYYYWGQGTQVTVSS | high polyreactivity
QVQLVESGGGLVQAGGSLRLSCAASGFIFYGNTMGWYRQAPGKERELVAAISWSGGTTYYADSVKGRFTISRDNAKNTVYLQMNSLKPEDTAVYYCNRAAFRYRYDYWGQGTQVTVSS | high polyreactivity
QVQLVESGGGLGQAGGSLRLSCAASGRIFYRYVMGWYRPAPGKERELVAAITTSGGRTYYADSVKGRFTISRDNAKNTVYLQLNSLKPEDTAVYDCAAASPTPVYWSGRDYYYWGQGTQVTVSS | high polyreactivity
QDQLVESGGGLVQAGGSLRLSCAASGLTYRLNAMGWYRQAPGKEREFVAAISAIGDRTYYADSVKGRFTISRDNAKNTVYLQMNSLKPEDTSVYYCNVTPRSAQVRIGNYWGQGTQVTVSS | high polyreactivity
QVQLQESDGGLVQAGGSLRLSCAASGSISPQYYMGWYRQAPGKEREFVAISKGTTTYYADSVKGRLTISRVNAKNTVYLQMNSLKPEDTAVYCCAAVRWLQKVHAYWDQGTQVTVSS | low polyreactivity
QVQLVESGGGLVQAGGSLRLSCAASGSIFHRYAMGWYRQAPGKERELVAAISRRGGSTYYADSVKGRFTISRDNAKNTVYLQMNSLIPVDTAVYYCNASLAGSSGRNRFEYWGQGTQVTVSS | high polyreactivity
QDQLGESGGGLVQAGGSLRLSCPASGFTVSNNVMGWSRQAPGKERELVADITWSGDGTYYADSVKGRFTISRDNAKKSVYLQMNSLKTEDTAVYYCNARYGKEYDYWGQGTQVTVSS | low polyreactivity
QVQLVESGGGIVQAGGSLRLSCAASGRIFRLNAMGWYRQAPGKERELVAAISSRAGSTYYADSVKGRFTISRDNAKNTVYLQMNSLKPEDTAVYYCAARTYSSRLGRDSDYWGQGTQVTVSS | high polyreactivity
QVQLVETGGGLVQAGGSLRLSCAASGRNYTYTMGWYRQAPGKERELVAAITYSGGSTYYADSVKGRFTISRDNAKNTVYLQMNSLKPEDTAVYYCAAVGRWPRYYYWGQGTQVTVSS | high polyreactivity
QVQLVESGGGLVQAGGSLRLSSAATGITFSSYAMGSYRQAPGKERELVAAISTRGGSTYYADSVKGRFTISRDNAKNTVYLQMNSLKPEDTAVYYCATGGRGGRRYEYWGQGTQVTVSS | low polyreactivity
QVQLVESGGGLVQAGGSLRLSCAASGSTFRPYAMGWDRQAPGKERELVAAITSTGGSTYYADSVKGRFTISRDNAKNTVYLQMNSLKPEDTAVYYCAAPLVRYAGPYDYWGQGTQVTVSS | low polyreactivity
QVQLAESGAGLVQAGGSLRLSCAASGFTFFPYAMGWYIQAPGKERELVAGITYNGGSTYYADSVKGRFTISRDNAKNTVYLQMNSLKPEDTAVYYCNAGRIGGFDWGQGTQVTVSS | low polyreactivity
QVQLVESGGGLVQAGGSLRLSCAASGRIIWSYAMGWYRQAPGKERELVAAIRSGGTTDYADSVKGRFTISRDNAKNTVYLQMNSLKPEDTAVYYCAADPYSVYGGDYWGQGTQVTVSS | low polyreactivity
QVQHVESGGGLVQAGGSLRLSCAASGSTFNSYDKGSYRQAPGKERELVAAISSSAASTYYADSVKGRFTISRDNAKKTGYLQMNSLKPEDTAVYYCAAYVYYTYPSCTVYSVSYIYDYWAQGTQVTVSS | low polyreactivity
QVQLVESGGGLVQAGGSLRLSCAASGFIIVKYAMGWYRQAPGKERELVAAITRGGRTYYADSVKGRFTISRDNAKNTVYLQMNSLKPEDTAVYYCNKARFYDPWLGKYGYKYDYWGQGTQVTVSS | high polyreactivity
QVQLVESGGGLVQAGGSLRLSCAASGSIFYRNVMGWYRQAPGKERELVAAISQRGGSTYYADSVKGRFTISRDKAKNTVFLQMNSLKPEDTAVYYCNAASRGAGTSIWSWYDLWGQGTQVTVSS | low polyreactivity

Sequence | polyreactivity (PSR sort gate)
QVQLVESGGGLVQAGGSLRLSCAASGSTFESNAMGWYRQAPGKERELVASISGSGGSTFYADSVKGRFTISRDNAKNTVYLQMNSLKPEDTAVYYCAAYKEPYYEEYGYWGQGTQVTVSS | low polyreactivity
QVQLVESGGGLDQAGGSLRLSCAASGSTFSQYVMGWYRQAPGKERELVAANSSGGSTYYADSVKGRFTISRDNAKNTVYLQMNSLKPEDTAVYYCAAKYDGSYVGLYWYSMNYWGQGTQVTVSS | low polyreactivity
QVQLVESGGGLVQAGGSLRLSCAASGSIFGRYTMGWYRQAPGKERELVAAISSSGGRTYYADSVKGRFTISRDNAKNTVFLQMNSLKPEDTAVYYCNNGYGYEYYWGQGTQVTVSS | low polyreactivity
QVQLVESGGGLVQAGGSLRLSCASSGYIFGRYAMGWYRQAPGKERELVAAISSTGDSTYYADSVKGRITISRDNAKNTVYLQMNSLKPEDTAVYYCNAVVPRYSYGRYYYWGQCTQVTVSS | high polyreactivity
QVQLVESGGGLVQAGGSLRLSCAASGRTFYWYALGWYRQAPGKERELVAAITKSGGSTYYADSVKGRFTISRDNAKNTVYLQMNSLKPEDTAVYYWAARYLYLLYYWGQGTQVTVSS | high polyreactivity
QVQLVESGGGLVQAGGSLRLSCAASGRIFRNNAMGWYRQAPGKERELVAAITWSGGSTYYADSVKGRFTISRDNAKNTVYLQMNSLKPEDTAVYYCNAGRGYKYSYTYDYWGQGTQVTVSS | low polyreactivity
QVQLVESGGGLVQAGGRLRLSCAASGITIYGYAMGWYRQAPGKEREFVAAISYSGASTYYADSVKGRFTISRDNAKNTVYLQMNSLKPEDTAVYYCAARVRRSLYGYWGIGTQVTVSS | high polyreactivity
QVQLVESGGGLLKAGGSLRLSCAASGIIFDSYAMGWYIQAPGKERELVAAITSDSGRTYYADSVKGRFTISRDYAKNTFYLQMNSLKPEDTAVYYCAKRWEGPYDYWGQGSQVTVSS | low polyreactivity
QVQLVESGGGLVQAGGSLRLSCAASGRTFRIYSMGWYRQAPGKEREFVAGITRSDGSTYYADSVKGRFTISRDNAKNTVYLQMNSLKPEDTAVYYCNVEPYSHYRRTEDYWGQGTQVTVSS | high polyreactivity
QVQLVESGGGLVQAGGSLRLSCAASGSIFLTYDMGWYRQAPGKERELVAAITGSGDSTYYADSVKGRFTISRDNAKNTVYLQMNSLKPEDNAVYYCNADGPSTPWVDYGYWGQGTQVTVSS | low polyreactivity
QVQLVESGGGLVQAGGSLRLSCAASGRIFYVYAMGWYIKAPGKERELVAAITSSGGRTNYADSVKGRFTISRDNAKNTVYLQMNSLKPEDTAVYYCAAAYPWGDYGVSDYDYWGQGTQVTVSS | low polyreactivity
QVQIVESGGGLVQEGGSLRLSCAASGRIFEPYDMGLYRQSPGKERELVAALRCSGGSTYYADSVKGRFTISRDNAKNTVYLQMNSLKPEDTAVYYCAKDAFGWGRVYYYRSGYWGQGTQVTVSS | high polyreactivity
QVQLVESGGGLVQAGGSLRLSCADSGFILGANDMGWYRQAPGKERELVAAIRSSDGTTYYADSVKGRFTISRDNAKNTVYLQMNSLKPEDTAVYYCAADWRLLYDYWGQGTQVTVSS | high polyreactivity
QVQLEESGGGLVQAGGSLRLSCAASGRTFKYYAMGWYIQAPGKERELVAAISWSGGDTYYADSVKGRFTISRDNAKNTVYLQMNSLKQEDTAVYYCAKYPWYRYPSYEYWGQGTQVTVSS | high polyreactivity
QVQLVESGGGLVQAGGSLRLSCAASGSTFKFNAMGWYRQAPGKEREFVAAITSSGDSTYYADSVKGRFTISRDNAKNTVYLQMNCLKPEDTAVYYCAAEFESSFALGFYYWGQGTEVTVSS | high polyreactivity
QVQLVESGVGLVQAGGSLRLSCAASGSTFGGYAMVWYRQAPGKESELVAAIYSSGGNTNYADSVKGRFTISRDNAKNTVYLQMNSLIPEDTAVYYCARDTQLPHFYGRVSEYDYWGQGTQVTVSS | low polyreactivity
QVQLVESGGGLVQAGGSLRLSCAASGRIFFTNDMGWYRQAPGKERELVATITGNGASTFYADSVKGRFTISRDNAKNTVYLQMNSLKPEDSAVYYCNADRSSYPRYDYWGQGTLVTVSS | low polyreactivity
QVQLVESGGGLVQAGGSLRLSCAASGSIFAYAMGWYRQAPGKERELVAGISSSGGRTYYADSVKGRFTISRDNAKNTVYLQMISLKPEDTAVYYCAARYPNVYQSETYFYWGQGTQVNVSS | high polyreactivity
QVQLVESGGGLVQAGGSLRLSCAASGSIFRYNAMGWYRQAPGKERELVAGISWSGGSTYYADSVKGRFTISRDNAKNTVYLQMNSLKPEDTAVYYCATRVGRYWTAGYYWGQGTQVTVSS | high polyreactivity
QVQLVESVGGLVQAGGILRLSCAASGRTFTLNAMGWYRQAPGKERELVATISRRGGSTYYADSVKGRFTISRDNAKNTVYLQMISLKPEDTAVYDCNVDRLGKRYDNWGQGSQVTVSS | low polyreactivity
QVQLVESGGGLVQAGGSLRLSCAASGRIFGGNTMGWYRQAPGKEREFVAAITQSGTRTYYADSVKGRFTISRDNAKNTVYLQMNSLKPEDTAVYYCAATWRQHPGSMGYWGQGTQVTVSS | high polyreactivity
